Target: Campylobacter jejuni resistance enhancing CmeB (RE-CmeB) multidrug efflux pump (C. jejuni)
Assay: cryo-EM structure; single-particle cryo-EM of 20 uM RE-CmeB in lipidic nanodiscs (MSP 1E3D1, E. coli total extract lipid; 20 mM Tris-HCl pH 7.5, 100 mM NaCl); apo, with fortuitous hydrolyzed ampicillin, or incubated with 1 mM Cip, Ery or Chl for 2 h on ice

Campylobacter jejuni resistance enhancing CmeB (RE-CmeB) multidrug efflux pump (natural protein)
stoichiometry N: 3

— article PMC10434076
